Legend:
[1] = biological target: βTrCP1 (UniProt Q9Y297); assay: co-immunoprecipitation; conditions: reference: ATF4 wild type; sites S219
[2] = biological target: βTrCP1 (UniProt Q9Y297); assay: anti-Myc co-IP, anti-Flag blot; conditions: reference: Myc-ATF4-WT with Flag-CK1δ; sites S219

| binding against the reference [1] | binding against the reference [2] | Substance |
| --- | --- | --- |
| lost | – | ATF4 (from UniProt P18848) ATF4-S219A |
| – | weaker | ATF4 (from UniProt P18848) Myc-ATF4-S219A with Flag-CK1δ |

Source: PMC8516343
